What all share (experiment): potentiometry
Series [1] deals with Glu3 (position 3, ---KQEGRDHD). Conditions: 298 K; 0.1 M NaClO4; none (4 mM HClO4 / 100 mM NaClO4); metal-free peptide, 0.5 mM, disordered.
Series [2] concerns the target Nterm1 (position 1, -----KQEGRD). Conditions: 298 K, 0.1 M NaClO4, none (4 mM HClO4 / 100 mM NaClO4).
In series [3] the target is Cterm29 (position 29, KGGKAH-----). Conditions: 298 K; 0.1 M NaClO4; none (4 mM HClO4 / 100 mM NaClO4); metal-free peptide, 0.5 mM, disordered.
The target of another series is Glu5 (position 5, -…). Particulars: 298 K; 0.1 M NaClO4; none (4 mM HClO4 / 100 mM NaClO4); metal-free peptide, 0.5 mM, disordered.
In series [4] the target is Nterm1 (position 1, -----HNKQEG). Particulars: 298 K; 0.1 M NaClO4; none (4 mM HClO4 / 100 mM NaClO4); metal-free peptide, 0.5 mM, disordered.
The target of a further series is Lys9 (position 9, …). Conditions: 298 K; 0.1 M NaClO4; none (4 mM HClO4 / 100 mM NaClO4); Zn(II)-bound peptide, mononuclear complex, Zn:peptide 1:1 (supplement captions state 0.9:1), peptide 0.5 mM.
Series [5] concerns the target Cterm15 (position 15, SKGHFH-----). Particulars: 298 K; 0.1 M NaClO4; none (4 mM HClO4 / 100 mM NaClO4); metal-free peptide, 0.5 mM, disordered.
In the next series the target is Lys11 (position 11, …-). Particulars: 298 K; 0.1 M NaClO4; none (4 mM HClO4 / 100 mM NaClO4); Zn(II)-bound peptide, mononuclear complex, Zn:peptide 1:1 (supplement captions state 0.9:1), peptide 0.5 mM.
The target of series [6] is Lys1 (position 1, -----KQEGRD). Particulars: 298 K; 0.1 M NaClO4; none (4 mM HClO4 / 100 mM NaClO4); Zn(II)-bound peptide, mononuclear complex, Zn:peptide 1:1 (supplement captions state 0.9:1), peptide 0.5 mM.
Setting [7] is: metal-free peptide, 0.5 mM, disordered.

For the protein KQEGRDHDKSKGHFHMIVIHHKGGQAHHG [SgIIA (SgII peptide A), 29-residue fragment of semenogelin II (Homo sapiens)], the results for the pKa in series [1] and in series [2] (setting [7]) were 4.26 and 9.47, respectively.

Take HNKQEGRDHDKSKGHFHRVVIHHKGGKAH [SgI-29, 29-residue fragment of semenogelin I (Homo sapiens)]: the pKa in series [3] amounted to 2.18; with Glu5 (position 5, -…), 3.74; in series [4] it was 9.45.

For the protein KQEGRDHDKSKGHFH [Sg-15, 15-residue fragment common to semenogelin I and semenogelin II (Homo sapiens)], the pKa was found to be 10.40 with Lys9 (position 9, …); 4.36 in [1]; 2.34 in series [5]; 6.82 in series [2] (Cu(II)-bound peptide, mononuclear complex, Cu:peptide 1:1 (supplement captions state 0.9:1), peptide 0.5 mM); 6.88 in series [2] (Zn(II)-bound peptide, mononuclear complex, Zn:peptide 1:1 (supplement captions state 0.9:1), peptide 0.5 mM); 7.58 in series [2] (setting [7]). Besides, the pKa with Lys11 (position 11, …-) was found to be 10.59; in [6] it was 9.52.

The values are drawn from publication PMC10466376.
